Legend:
[1] = target: human VEGFA (Cat. No. Z03073, Genscript) (human) (UniProt P15692); test: competition ELISA: plate coated with Eylea, Conbercept in dilution series pre-incubated with 5 nM VEGFA, VEGFA bound to Eylea detected. The sheet prints ng/mL, the text prints nM
[2] = target: human VEGFA (Cat. No. Z03073, Genscript) (human) (UniProt P15692); test: competition ELISA, Eylea coated as competitor, 5 nM VEGFA dimer pre-incubated with Conbercept
[3] = target: human VEGFA (Cat. No. Z03073, Genscript) (human) (UniProt P15692); test: SPR (Biacore), protein captured on protein A chip, VEGFA as analyte, 25 C
[4] = target: human VEGFA (Cat. No. Z03073, Genscript) (human) (UniProt P15692)
[5] = target: human VEGFA (Cat. No. Z03073, Genscript) (human) (UniProt P15692); test: ELISA, plate coated with VEGFA, detection with HRP anti-human IgG

human VEGFA (Cat. No. Z03073, Genscript) (human), sequence (P15692 other isoform, or with tags, fused parts or gaps limits assumed): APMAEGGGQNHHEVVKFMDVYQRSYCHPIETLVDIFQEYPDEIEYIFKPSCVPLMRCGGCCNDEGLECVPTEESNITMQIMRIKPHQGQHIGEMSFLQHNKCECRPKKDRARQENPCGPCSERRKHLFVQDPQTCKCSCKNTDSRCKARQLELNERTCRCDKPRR
Eylea (Fc fusion), sequence (chain): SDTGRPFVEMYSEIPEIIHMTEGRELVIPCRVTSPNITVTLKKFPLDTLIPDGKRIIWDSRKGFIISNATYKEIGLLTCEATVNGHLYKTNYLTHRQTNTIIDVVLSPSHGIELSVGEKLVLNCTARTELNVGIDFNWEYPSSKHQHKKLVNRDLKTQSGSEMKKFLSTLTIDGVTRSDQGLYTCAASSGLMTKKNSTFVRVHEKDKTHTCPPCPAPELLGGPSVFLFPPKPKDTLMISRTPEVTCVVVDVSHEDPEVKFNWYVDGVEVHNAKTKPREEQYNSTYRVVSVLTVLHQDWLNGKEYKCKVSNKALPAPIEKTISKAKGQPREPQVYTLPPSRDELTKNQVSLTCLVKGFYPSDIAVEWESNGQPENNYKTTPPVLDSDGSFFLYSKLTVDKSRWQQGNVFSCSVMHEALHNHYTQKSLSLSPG
Conbercept eye injection (Fc fusion), sequence (chain): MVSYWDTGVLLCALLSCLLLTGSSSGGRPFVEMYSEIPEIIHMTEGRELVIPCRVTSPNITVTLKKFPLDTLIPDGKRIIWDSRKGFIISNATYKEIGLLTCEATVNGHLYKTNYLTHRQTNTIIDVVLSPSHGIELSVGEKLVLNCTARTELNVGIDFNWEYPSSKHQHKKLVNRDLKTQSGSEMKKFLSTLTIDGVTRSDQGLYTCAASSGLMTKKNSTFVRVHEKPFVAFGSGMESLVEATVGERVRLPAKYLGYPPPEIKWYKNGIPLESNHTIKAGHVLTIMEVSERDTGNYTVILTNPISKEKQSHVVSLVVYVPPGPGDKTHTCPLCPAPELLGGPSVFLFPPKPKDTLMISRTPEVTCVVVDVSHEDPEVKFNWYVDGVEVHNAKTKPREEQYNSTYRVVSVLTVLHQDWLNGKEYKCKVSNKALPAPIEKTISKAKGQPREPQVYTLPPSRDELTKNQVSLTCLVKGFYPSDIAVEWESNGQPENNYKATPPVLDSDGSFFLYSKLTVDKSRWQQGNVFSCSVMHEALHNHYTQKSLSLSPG

## Conbercept eye injection (Fc fusion)
[1]
  IC50: 0.0169 µg/mL
[2]
  IC50: 16.9 nM

## Eylea (Fc fusion)
[3]
  Kd: 0.0361 nM
[4]
  IC50 (inhibition of VEGFA-induced HUVEC proliferation, CellTiter-Glo): 0.0045 µg/mL
[5]
  EC50 (read off the curve): 0.07 µg/mL

— patent US20240343791A1
